# T1: human TREM2 (triggering receptor expressed on myeloid cells 2) (human) (UniProt Q9NZC2)
# T1 sequence (looked up): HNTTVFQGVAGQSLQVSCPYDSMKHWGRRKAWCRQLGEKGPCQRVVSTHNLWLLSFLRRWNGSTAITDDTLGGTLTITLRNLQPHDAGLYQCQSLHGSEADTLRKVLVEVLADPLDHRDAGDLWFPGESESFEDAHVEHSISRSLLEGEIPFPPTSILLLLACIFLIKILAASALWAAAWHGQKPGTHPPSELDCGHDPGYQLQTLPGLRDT
# B1: 6E7 antibody affinity modulation variant V70 (antibody, V domains shown)
# VH: EVQLVQSGAEVKKPGESLKISCKGSGYSFTSYWIAWVRQMPGKGLEWMGIIYPGDSDTRYSPSFQGQVTISADKSISTAYLQWSSLKASDTAMYFCARQRTFYYDSSDYFDYWGQGTLVTVSS
# VL: DIQMTQSPSSVSASVGDRVTITCRASQGISSWLAWYQQKPGKAPKLLIYAAGSLQNGVPSRFSGSGSGTDFTLTISSLQPEDFATYFCQQADSFPRTFGQGTKLEIK
# B2: 6E7 antibody affinity modulation variant V71 (antibody, V domains shown)
# VH: EVQLVQSGAEVKKPGESLKISCKGSGYSFTSYWIAWVRQMPGKGLEWMGIIYPGDSDTRYSPSFQGQVTISADKSISTAYLQWSSLKASDTAMYFCARQRTFYYDSSDYFDYWGQGTLVTVSS
# VL: DIQMTQSPSSVSASVGDRVTITCRASQGISSWLAWYQQKPGKAPKLLIYAASSLQNGVPSRFSGSGSGTDFTLTISSLQPEDFATYFCQQADSEPRTFGQGTKLEIK
# B3: 6E7 antibody affinity modulation variant V78 (antibody, V domains shown)
# VH: EVQLVQSGAEVKKPGESLKISCKGSGYRFTSYWIAWVRQMPGKGLEWMGIIYPGDSDTRYSPSFQGQVTISADKSISTAYLQWSSLKASDTAMYFCARQRTFYYDSSDYFDYWGQGTLVTVSS
# VL: DIQMTQSPSSVSASVGDRVTITCRASQGISSWLAWYQQKPGKAPKLLIYAASSLQNGVPSRFSGSGSGTDFTLTISSLQPEDFATYFCQQADSFPRTFGQGTKLEIK
# B4: 6E7 antibody affinity modulation variant V79 (antibody, V domains shown)
# VH: EVQLVQSGAEVKKPGESLKISCKGSGYSFTSYWIAWVRQMPGKGLEWMGIIYPGDSDTNYSPSFQGQVTISADKSISTAYLQWSSLKASDTAMYFCARQRTFYYDSSDYFDYWGQGTLVTVSS
# VL: DIQMTQSPSSVSASVGDRVTITCRASQGISSWLAWYQQKPGKAPKLLIYAASSLQNGVPSRFSGSGSGTDFTLTISSLQPEDFATYFCQQADSFPRTFGQGTKLEIK
# B5: 6E7 antibody affinity modulation variant V80 (antibody, V domains shown)
# VH: EVQLVQSGAEVKKPGESLKISCKGSGYSFTSYWIAWVRQMPGKGLEWMGIIYPGDSDTRYSPSFQGQVTISADKSISTAYLQWSSLKASDTAMYFCARQRNFYYDSSDYFDYWGQGTLVTVSS
# VL: DIQMTQSPSSVSASVGDRVTITCRASQGISSWLAWYQQKPGKAPKLLIYAASSLQNGVPSRFSGSGSGTDFTLTISSLQPEDFATYFCQQADSFPRTFGQGTKLEIK
# B6: 6E7 antibody affinity modulation variant V81 (antibody, V domains shown)
# VH: EVQLVQSGAEVKKPGESLKISCKGSGYSFTSYWIAWVRQMPGKGLEWMGIIYPGDSDTRYSPSFQGQVTISADKSISTAYLQWSSLKASDTAMYFCARQRTFYYDSSDYFDYWGQGTLVTVSS
# VL: DIQMTQSPSSVSASVGDRVTITCRASQGISSLLAWYQQKPGKAPKLLIYAASSLQNGVPSRFSGSGSGTDFTLTISSLQPEDFATYFCQQADSFPRTFGQGTKLEIK
# B7: 6E7 antibody affinity modulation variant V82 (antibody, V domains shown)
# VH: EVQLVQSGAEVKKPGESLKISCKGSGYSFTSYWIAWVRQMPGKGLEWMGIIYPGDSDTRYSPSFQGQVTISADKSISTAYLQWSSLKASDTAMYFCARQRTFYYDSSDYFDYWGQGTLVTVSS
# VL: DIQMTQSPSSVSASVGDRVTITCRASQGISSWLAWYQQKPGKAPKLLIYAGSSLQNGVPSRFSGSGSGTDFTLTISSLQPEDFATYFCQQADSFPRTFGQGTKLEIK
# B8: 6E7 antibody affinity modulation variant V83 (antibody, V domains shown)
# VH: EVQLVQSGAEVKKPGESLKISCKGSGYSFTSYWIAWVRQMPGKGLEWMGIIYPGDSDTRYSPSFQGQVTISADKSISTAYLQWSSLKASDTAMYFCARQRTFYYDSSDYFDYWGQGTLVTVSS
# VL: DIQMTQSPSSVSASVGDRVTITCRASQGISSWLAWYQQKPGKAPKLLIYAASSLQNGVPSRFSGSGSGTDFTLTISSLQPEDFATYFCQQAVSFPRTFGQGTKLEIK
# B9: 6E7 antibody affinity modulation variant V90 (antibody, V domains shown)
# VH: EVQLVQSGAEVKKPGESLKISCKGSGYSFTSEWIAWVRQMPGKGLEWMGIIYPGDSDTRYSPSFQGQVTISADKSISTAYLQWSSLKASDTAMYFCARQRTFYYDSSDYFDYWGQGTLVTVSS
# VL: DIQMTQSPSSVSASVGDRVTITCRASQGISRWLAWYQQKPGKAPKLLIYAASSLQNGVPSRFSGSGSGTDFTLTISSLQPEDFATYFCQQADSFPRTFGQGTKLEIK
# B10: 6E7 antibody affinity modulation variant V91 (antibody, V domains shown)
# VH: EVQLVQSGAEVKKPGESLKISCKGSGYSFTSYWIAWVRQMPGKGLEWMGIIYPDDSDTRYSPSFQGQVTISADKSISTAYLQWSSLKASDTAMYFCARQRTFYYDSSDYFDYWGQGTLVTVSS
# VL: DIQMTQSPSSVSASVGDRVTITCRASQGISSWLAWYQQKPGKAPKLLIYAASSLQNGVPSRFSGSGSGTDFTLTISSLQPEDFATYFCQQADSFPRTFGQGTKLEIK
# B11: 6E7 antibody affinity modulation variant V92 (antibody, V domains shown)
# VH: EVQLVQSGAEVKKPGESLKISCKGSGYSFTSYWIAWVRQMPGKGLEWMGIIYPGDSDTRYSPSFQGQVTISADKSISTAYLQWSSLKASDTAMYFCARQRTFHYDSSDYFDYWGQGTLVTVSS
# VL: DIQMTQSPSSVSASVGDRVTITCRASQGISSWLAWYQQKPGKAPKLLIYAASSLQNGVPSRFSGSGSGTDFTLTISSLQPEDFATYFCQQADSFPRTFGQGTKLEIK
# B12: 6E7 antibody affinity modulation variant V93 (antibody, V domains shown)
# VH: EVQLVQSGAEVKKPGESLKISCKGSGYSFTSYWIAWVRQMPGKGLEWMGIIYPGDSDTRYSPSFQGQVTISADKSISTAYLQWSSLKASDTAMYFCARQRTFYYDSSDYFDYWGQGTLVTVSS
# VL: DIQMTQSPSSVSASVGDRVTITCRASQGISGWLAWYQQKPGKAPKLLIYAASSLQNGVPSRFSGSGSGTDFTLTISSLQPEDFATYFCQQADSFPRTFGQGTKLEIK
# B13: 6E7 antibody affinity modulation variant V94 (antibody, V domains shown)
# VH: EVQLVQSGAEVKKPGESLKISCKGSGYSFTSYWIAWVRQMPGKGLEWMGIIYPGDSDTRYSPSFQGQVTISADKSISTAYLQWSSLKASDTAMYFCARQRTFYYDSSDYFDYWGQGTLVTVSS
# VL: DIQMTQSPSSVSASVGDRVTITCRASQGISSWLAWYQQKPGKAPKLLIYAAASLQNGVPSRFSGSGSGTDFTLTISSLQPEDFATYFCQQADSFPRTFGQGTKLEIK
# B14: 6E7 antibody affinity modulation variant V6 (antibody, V domains shown)
# VH: EVQLVQSGAEVKKPGESLKISCKGSGYSFTSMWIAWVRQMPGKGLEWMGIIYPGDSDTRYSPSFQGQVTISADKSISTAYLQWSSLKASDTAMYFCARQRTFYYDSSDYFDYWGQGTLVTVSS
# VL: DIQMTQSPSSVSASVGDRVTITCRASQGISSWLAWYQQKPGKAPKLLIYAASSLQNGVPSRFSGSGSGTDFTLTISSLQPEDFATYFCQQADSFPRTFGQGTKLEIK
# Columns and labels:
# [1] = target: T1, human TREM2 (triggering receptor expressed on myeloid cells 2) (human); experiment: 1st screen, 110 nM Ab
# [2] = target: T1, human TREM2 (triggering receptor expressed on myeloid cells 2) (human); experiment: 2nd screen, 100 nM Ab
Binder,Binding Signal (fold over 6E7 parental antibody) [1] [fold],Binding Signal (fold over 6E7 parental antibody) [2] [fold]
B1,0.79,0.84
B2,0.37,0.48
B3,0.86,1.11
B4,0.7,0.52
B5,0.59,0.5
B6,0.17,0.23
B7,0.3,0.79
B8,0.2,0.29
B9,0.33,0.36
B10,0.25,0.61
B11,0.22,0.65
B12,0.35,1.05
B13,0.31,0.87
B14,0.2,0.56

# Source: US20250019437A1
